Test [1] deals with T1, mouse serum albumin (MSA) (mouse, UniProt P07724 25-608).
T1 construct: also called mouse albumin
Briefly: fluorescence polarization, dilution series of mouse albumin in PBS.

In test [2] the target is T2, human serum albumin (HSA) (human, UniProt P02768 25-609). Nature of the test: fluorescence polarization. (In general: Polarisation of emitted light reports the rotation of a fluorescent probe.)
The target of test [3] is T2, human serum albumin (HSA). Briefly: fluorescence polarization, dilution series of human serum.
Experimental: (b) Kd values of conjugates for HSA assessed by fluorescence polarization. A dilution serious of human serum was used. […] All data represent the mean of three measurements ±SD.
Thus, the dissociation constants (Kd) of the molecules for HSA were tested with a fluorescence polarization (FP) assay using the fluorescein moiety in the albumin tag. The fluorescence anisotropy of the molecules in a dilution series of human serum was measured and Kd values were calculated.
The target in test [4] is T3, human Kallikrein-related peptidase 7 (hKLK7) (human, UniProt P49862 30-253).
T3 construct: Active protease used in substrate-based activity assays and immobilized for phage selection; also called stratum corneum chymotryptic enzyme (SCCE)
Nature of the test: substrate-based activity assay in the presence of 25 µM HSA.
Experimental: (§1) (a) Kᵢ values of N- and C-terminal tag conjugates in comparison to unconjugated inhibitors measured by inhibition assays in the presence of HSA. […] All data represent the mean of three measurements ±SD.
(§2) Even though the actual concentration of albumin in human blood is at around 600 μM and thus much higher, a higher albumin concentration in the assay was not possible, as it interfered with the protease activity.

The next test concerns the target T4, FXIIa (Factor XIIa) (human, UniProt P00748 373-615, limits assumed).
T4 sequence (looked up): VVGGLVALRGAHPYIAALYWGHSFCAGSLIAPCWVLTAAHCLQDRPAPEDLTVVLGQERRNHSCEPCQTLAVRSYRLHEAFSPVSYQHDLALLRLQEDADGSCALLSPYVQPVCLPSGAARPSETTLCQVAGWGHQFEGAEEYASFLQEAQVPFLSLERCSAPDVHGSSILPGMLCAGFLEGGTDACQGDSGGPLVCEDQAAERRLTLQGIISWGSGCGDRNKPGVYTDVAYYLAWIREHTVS
Briefly: substrate-based activity assay, off-target selectivity.

Test [5] has as its target T5, human Kallikrein-related peptidase 5 (hKLK5) (human, UniProt Q9Y337 67-293, limits assumed).
T5 construct: Active protease used in substrate-based activity assays and immobilized for phage selection; also called stratum corneum tryptic enzyme (SCTE)
Briefly: substrate-based activity assay in the presence of 25 µM HSA.
Experimental: as §1, §2

Test [6] deals with T3, human Kallikrein-related peptidase 7 …. Nature of the test: substrate-based activity assay.

Positions of bridges follow the written chain, without caps; N, C: chain ends. Non-standard residues stand in square brackets, D forms with d. Primed or numbered codes have the meaning given here. Chains are numbered I, II in the order given. No end group written: not given here. *: point of attachment. Palmitoyl = CCCCCCCCCCCCCCCC(=O)*; PEG2′ = PEG2 spacer unit

T3 sequence (P49862 30-253 limits assumed): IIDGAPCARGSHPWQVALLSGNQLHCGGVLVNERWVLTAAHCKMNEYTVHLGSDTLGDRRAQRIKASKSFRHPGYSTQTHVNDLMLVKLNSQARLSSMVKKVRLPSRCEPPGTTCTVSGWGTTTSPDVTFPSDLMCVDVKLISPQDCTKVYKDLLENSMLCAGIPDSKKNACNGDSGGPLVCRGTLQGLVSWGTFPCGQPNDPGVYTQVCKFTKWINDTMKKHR
T5 sequence (Q9Y337 67-293 limits assumed): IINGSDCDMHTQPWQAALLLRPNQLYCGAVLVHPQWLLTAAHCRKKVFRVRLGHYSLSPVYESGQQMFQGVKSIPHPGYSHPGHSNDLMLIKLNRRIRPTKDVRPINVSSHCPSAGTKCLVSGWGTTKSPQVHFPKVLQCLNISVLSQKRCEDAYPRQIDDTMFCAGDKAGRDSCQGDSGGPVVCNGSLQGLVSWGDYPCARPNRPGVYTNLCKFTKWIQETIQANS
T1 sequence (P07724 25-608 limits assumed): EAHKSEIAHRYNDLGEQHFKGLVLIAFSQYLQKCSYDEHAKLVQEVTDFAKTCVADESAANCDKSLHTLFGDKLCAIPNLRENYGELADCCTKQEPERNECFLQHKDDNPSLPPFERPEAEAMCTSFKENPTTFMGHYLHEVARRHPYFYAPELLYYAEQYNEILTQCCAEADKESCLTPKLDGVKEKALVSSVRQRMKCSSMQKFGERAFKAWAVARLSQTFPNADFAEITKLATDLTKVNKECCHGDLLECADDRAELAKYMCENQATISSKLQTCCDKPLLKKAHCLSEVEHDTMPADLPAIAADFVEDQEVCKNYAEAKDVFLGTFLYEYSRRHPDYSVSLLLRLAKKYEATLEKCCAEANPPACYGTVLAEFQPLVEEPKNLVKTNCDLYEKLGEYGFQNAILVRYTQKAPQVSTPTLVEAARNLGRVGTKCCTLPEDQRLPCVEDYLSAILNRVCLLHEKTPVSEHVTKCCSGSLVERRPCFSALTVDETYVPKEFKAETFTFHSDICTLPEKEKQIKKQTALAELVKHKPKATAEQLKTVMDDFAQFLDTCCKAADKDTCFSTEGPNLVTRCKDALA

B1: SSSKSSS-tag (peptide)
peptide: SSSK(Palmitoyl)SSS
modifications: also: fluorescein label, position not given here
notes: Tag variant with all Tyr and Glu replaced by Ser; also called tag composed of Ser residues
Consider B1, for which, in test [1], the binding result is reported as “binds”.

B2: albumin tag variant peptide 263 (peptide)
peptide: EYEKEYEK
modifications: pentanedioic acid appended to the N-terminus through a PEG2 unit; Lys 4 side chain acylated with palmitic acid; additional C-terminal Lys carries 5(6)-carboxyfluorescein on its side chain
As for B2, in test [2], the “factor recovered in HSA affinity compared to tag-F” value amounted to 2 fold.

B3: N-terminal albumin tag conjugate of KLK7 inhibitor 096 (peptide)
peptide 1: {5(6)‑carboxyfluorescein}-EYEK(Palmitoyl)EYE[PEG2′]
peptide 2: PCLYLARCS
modifications: linker II:2-II:8 via 1,3‑dibromoacetone; also: tag C-terminus joined through PEG2 to inhibitor N-terminus (one linear molecule)
notes: also called N-terminal conjugate (KLK7)
Usually Ki stands for a dissociation constant, usually derived from enzyme kinetics or from competition with a known ligand. As for B3, in test [3], the binding result is recorded as “binds”. Further, in test [4], the Ki amounted to 0.106 µM and the “fold loss in activity compared to the cyclic peptide alone” value came out at 6.6 fold.

B4: albumin tag variant peptide 282 (peptide)
peptide: EYEKEYEK
modifications: biphenyl-3-carboxylic acid cap at the N-terminus (based on peptide 266: on a gamma-coupled glutamic acid, through PEG2); Lys 4 side chain acylated with palmitic acid; additional C-terminal Lys carries 5(6)-carboxyfluorescein on its side chain
notes: also called tag variant 282
On to B4, for which the “factor of improvement in HSA affinity over peptide 266” value in test [2] was 4 fold.
In the case of GCTRQYPC (linker 2-8 via 1,3‑dibromoacetone, also called compound 035) [peptide 035 (lead KLK5 inhibitor)], the “fold weaker than the Ki value for KLK5” value with FXIIa (Factor XIIa) was around 4300 fold.

B5: KLK5 inhibitor 035-tag (C-terminal albumin tag conjugate of 035) (peptide)
peptide 1: GCTRQYPCGKG
peptide 2: EYEK(Palmitoyl)EYE
modifications: bridge I:2-I:8; not fully specified (some residues, N-terminus, bridges); also: chain 2 (albumin tag) attached via PEG2 to Lys10 side chain of chain 1 (branched)
For B5, the binding result in test [1] is recorded as “binds”. The “fold loss in affinity (Kd) for HSA on conjugation” value in test [3] came out at 2.1 fold. The “fold improvement in the Ki value compared to the cyclic peptide alone” value in test [5] is 1.8 fold.

B6: albumin tag variant peptide 266 (peptide)
peptide: EYEKEYEK
modifications: benzoic acid coupled to the amine of a gamma-coupled glutamic acid at the N-terminus (through PEG2); Lys 4 side chain acylated with palmitic acid; additional C-terminal Lys carries 5(6)-carboxyfluorescein on its side chain
Regarding B6, the “further factor recovered in HSA affinity by the first aromatic ring” value in test [2] was 2 fold.
In the case of PCLYLARCS (linker 2-8 via 1,3‑dibromoacetone) [peptide 096 (lead KLK7 inhibitor)], the “fold better activity than peptide 114” value in test [6] worked out at 2 fold.

B7: KLK7 inhibitor 096-tag (C-terminal albumin tag conjugate of 096) (peptide)
peptide 1: PCLYLARCSGKG
peptide 2: EYEK(Palmitoyl)EYE
modifications: bridge I:2-I:8; not fully specified (some residues, N-terminus, bridges); also: chain 2 (albumin tag) attached via PEG2 to Lys11 side chain of chain 1 (branched)
notes: Branched molecule
Turning to B7, the “fold loss in affinity (Kd) for HSA on conjugation” value in test [3] came out at 2.9 fold.

B8: N-terminal albumin tag conjugate of KLK5 inhibitor 035 (peptide)
peptide 1: {5(6)‑carboxyfluorescein}-EYEK(Palmitoyl)EYE
peptide 2: GCTRQYPC
modifications: bridge II:2-II:8; not fully specified (C-terminus, bridges); also: chain 1 C-terminus joined via PEG2 to N-terminus of chain 2 (one linear molecule)
notes: also called N-terminal conjugate (KLK5)
Consider B8, for which, in test [3], the binding result is “binds”. Besides, in test [5], the Ki came to 0.023 µM and the “fold loss in activity compared to the cyclic peptide alone” value is 10 fold.

B9: albumin tag variant peptide 284 (peptide)
peptide: EYEKEYEK
modifications: 2-naphthalenecarboxylic acid cap at the N-terminus (based on peptide 266: on a gamma-coupled glutamic acid, through PEG2); Lys 4 side chain acylated with palmitic acid; additional C-terminal Lys carries 5(6)-carboxyfluorescein on its side chain
notes: also called tag variant 284
Take B9: the “factor of improvement in HSA affinity over peptide 266” value in test [2] came to 4 fold.

Source of the values: patent US20220267379A1 (ECOLE POLYTECHNIQUE FEDERALE DE LAUSANNE EPFL, published 2022).
